From patent CN102731650A (SICHUAN HUIYU PHARMACEUTICAL CO LTD, dated 2012) come the findings set out here.

This experiment deals with T1, SP62 (biotin-labelled peptide containing the 2F5 epitope sequence) (HIV-1, biotin-labelled (position not given)).
T1 construct: The results speak of the 'MPER peptide' or 'peptide'; also called 2F5多肽; gp41 MPER多肽
T1 peptide: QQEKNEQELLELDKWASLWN
The experiment in a line: ELISA.

B1: A2 (light-chain shuffled clone, Fab on phage) (Fab, V domains shown)
VH: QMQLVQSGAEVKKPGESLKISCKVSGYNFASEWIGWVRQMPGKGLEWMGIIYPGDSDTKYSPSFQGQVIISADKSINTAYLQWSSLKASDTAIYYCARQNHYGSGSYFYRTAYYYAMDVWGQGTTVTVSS
VL: DIQLTQSPSSLSASLGDKVTITCRASQHIKKYLNWYQQKPGKAPKLLIYGALNLQSGVPSRFSGRGSGTDFTLTISSLQPEDFATYYCQQSYSTPFTFGPGTKVDIKR
Turning to B1, the binding result is on record as “binds”.
